Data set [1] deals with AaFtsH-Δ20 mutant (Aquifex aeolicus) (UniProt O67077). The data set is described as follows: SEC-MALS; Superose 6 Increase 10/300 GL, 20 mM Tris-HCl pH 8.0, 150 mM NaCl, 0.01% LMNG, room temperature; protein conjugate analysis; step: subunits to hexamer (second peak). (Size exclusion chromatography separates by hydrodynamic size, large species first.)
Substrate in the data set “purified protein”: Nc1ncnc2c1ncn2[C@@H]1O[C@H](COP(=O)(O)OP(=O)(O)OP(=O)(O)O)[C@@H](O)[C@H]1O
The data set is described as follows: purified protein. As to conditions: 50 mM Tris-HCl pH 8.0, 150 mM NaCl, 10 mM MgCl2, 60 °C, 0.25 μM AaFtsH (monomer concentration).

Data set [2] deals with the molecule itself. Kind of data set: SEC-MALS; Superose 6 Increase 10/300 GL, 20 mM Tris-HCl pH 8.0, 150 mM NaCl, 0.01% LMNG, room temperature; protein conjugate analysis; step: two hexamers to a dodecamer in one LMNG micelle (first peak).
Data set [3] deals with the molecule itself. Kind of data set: SEC-MALS; Superose 6 Increase 10/300 GL, 20 mM Tris-HCl pH 8.0, 150 mM NaCl, 0.01% LMNG, room temperature; protein conjugate analysis; step: subunits to hexamer (second peak).

The values that follow come from PMC7949044, “The cytoplasmic domain of the AAA+ protease FtsH is tilted with respect to the membrane to facilitate substrate entry” (The Journal of Biological Chemistry, 2020).

In general, stoichiometry N refers to a count of units in the complex or per binding partner. “AaFtsH-Δ20 mutant (from UniProt O67077 1-634) (enzyme)” gave a stoichiometry N in data set [1] of 6.

B1: AaFtsH hexamer (Aquifex aeolicus VF5) (protein)
chain: MNALKNFFIWAIIIGAAIVAFNLFEGKREFTTKVSLNEVVKLVEEGKVSYAEVRGNTAIIQTKDGQKLEVTLPPNTNLVDKMVEKGVRVEVANPEPPGGWLVNVFLSWLPILFFIGIWIFLLRQMSGGGNVNRAFNFGKSRAKVYIEEKPKVTFKDVAGIEEVKEEVKEIIEYLKDPVKFQKLGGRPPKGVLLYGEPGVGKTLLAKAIAGEAHVPFISVSGSDFVEMFVGVGAARVRDLFETAKKHAPCIIFIDEIDAVGRARGAIPVGGGHDEREQTLNQLLVEMDGFDTSDGIIVIAATNRPDILDPALLRPGRFDRQIFIPKPDVRGRYEILKVHARNKKLAKDVDLEFVARATPGFTGADLENLLNEAALLAARKGKEEITMEEIEEALDRITMGLERKGMTISPKEKEKIAIHEAGHALMGLVSDDDDKVHKISIIPRGMALGVTQQLPIEDKHIYDKKDLYNKILVLLGGRAAEEVFFGKDGITTGAENDLQRATDLAYRMVSMWGMSDKVGPIAIRRVANPFLGGMTTAVDTSPDLLREIDEEVKRIITEQYEKAKAIVEEYKEPLKAVVKKLLEKETITCEEFVEVFKLYGIELKDKCKKEELFDKDRKSEENKELKSEEVKEEVV
For orientation: kcat means the number of substrate molecules converted per active site and unit of time at saturation. On to B1, for which, in the data set “purified protein”, the Km is given as 600 (95% CI: 480–754) μM and the catalytic constant (kcat) amounted to 1.05 s⁻¹.

B2: full-length Aquifex aeolicus FtsH (enzyme, UniProt O67077 1-634, looked up)
chain: MNALKNFFIWAIIIGAAIVAFNLFEGKREFTTKVSLNEVVKLVEEGKVSYAEVRGNTAIIQTKDGQKLEVTLPPNTNLVDKMVEKGVRVEVANPEPPGGWLVNVFLSWLPILFFIGIWIFLLRQMSGGGNVNRAFNFGKSRAKVYIEEKPKVTFKDVAGIEEVKEEVKEIIEYLKDPVKFQKLGGRPPKGVLLYGEPGVGKTLLAKAIAGEAHVPFISVSGSDFVEMFVGVGAARVRDLFETAKKHAPCIIFIDEIDAVGRARGAIPVGGGHDEREQTLNQLLVEMDGFDTSDGIIVIAATNRPDILDPALLRPGRFDRQIFIPKPDVRGRYEILKVHARNKKLAKDVDLEFVARATPGFTGADLENLLNEAALLAARKGKEEITMEEIEEALDRITMGLERKGMTISPKEKEKIAIHEAGHALMGLVSDDDDKVHKISIIPRGMALGVTQQLPIEDKHIYDKKDLYNKILVLLGGRAAEEVFFGKDGITTGAENDLQRATDLAYRMVSMWGMSDKVGPIAIRRVANPFLGGMTTAVDTSPDLLREIDEEVKRIITEQYEKAKAIVEEYKEPLKAVVKKLLEKETITCEEFVEVFKLYGIELKDKCKKEELFDKDRKSEENKELKSEEVKEEVV
notes: the cited crystal structure PDB 4WW0 holds only the cytosolic domain, residues 141-608; The molecule is the protomer; In LMNG it is found as a hexamer (second SEC peak) and as a dodecamer of two hexamers in one LMNG micelle (first SEC peak); Before SEC it was incubated overnight at 60 °C with 20 mM ATP, 10 mM MgCl2 and 25 uM ZnCl2; also called AaFtsH; AaFtsH wildtype; source: E. coli, …
Consider B2, for which the “stoichiometry N” value was roughly 12 in data set [2] and 6 in data set [3].

B3: AaFtsH dodecamer (Aquifex aeolicus VF5) (protein)
chain: MNALKNFFIWAIIIGAAIVAFNLFEGKREFTTKVSLNEVVKLVEEGKVSYAEVRGNTAIIQTKDGQKLEVTLPPNTNLVDKMVEKGVRVEVANPEPPGGWLVNVFLSWLPILFFIGIWIFLLRQMSGGGNVNRAFNFGKSRAKVYIEEKPKVTFKDVAGIEEVKEEVKEIIEYLKDPVKFQKLGGRPPKGVLLYGEPGVGKTLLAKAIAGEAHVPFISVSGSDFVEMFVGVGAARVRDLFETAKKHAPCIIFIDEIDAVGRARGAIPVGGGHDEREQTLNQLLVEMDGFDTSDGIIVIAATNRPDILDPALLRPGRFDRQIFIPKPDVRGRYEILKVHARNKKLAKDVDLEFVARATPGFTGADLENLLNEAALLAARKGKEEITMEEIEEALDRITMGLERKGMTISPKEKEKIAIHEAGHALMGLVSDDDDKVHKISIIPRGMALGVTQQLPIEDKHIYDKKDLYNKILVLLGGRAAEEVFFGKDGITTGAENDLQRATDLAYRMVSMWGMSDKVGPIAIRRVANPFLGGMTTAVDTSPDLLREIDEEVKRIITEQYEKAKAIVEEYKEPLKAVVKKLLEKETITCEEFVEVFKLYGIELKDKCKKEELFDKDRKSEENKELKSEEVKEEVV
As for B3, in “purified protein”, the Km was 518 (95% CI: 432–625) μM and the kcat turned out to be 1.02 s⁻¹.
